Measured values taken from publication PMC7102599 (Cell, 2020).
Values joined by “and” are separate entries in the source; they are usually repeats but may differ in a detail not shown here. Identical values can stand only once.

Target: human angiotensin-converting enzyme 2 ectodomain (ACE2, residues 1-614) (human, UniProt Q9BYF1 18-614)
Test: BLI

human angiotensin-converting enzyme 2 ectodomain (ACE2, residues 1-614), sequence (Q9BYF1 18-614): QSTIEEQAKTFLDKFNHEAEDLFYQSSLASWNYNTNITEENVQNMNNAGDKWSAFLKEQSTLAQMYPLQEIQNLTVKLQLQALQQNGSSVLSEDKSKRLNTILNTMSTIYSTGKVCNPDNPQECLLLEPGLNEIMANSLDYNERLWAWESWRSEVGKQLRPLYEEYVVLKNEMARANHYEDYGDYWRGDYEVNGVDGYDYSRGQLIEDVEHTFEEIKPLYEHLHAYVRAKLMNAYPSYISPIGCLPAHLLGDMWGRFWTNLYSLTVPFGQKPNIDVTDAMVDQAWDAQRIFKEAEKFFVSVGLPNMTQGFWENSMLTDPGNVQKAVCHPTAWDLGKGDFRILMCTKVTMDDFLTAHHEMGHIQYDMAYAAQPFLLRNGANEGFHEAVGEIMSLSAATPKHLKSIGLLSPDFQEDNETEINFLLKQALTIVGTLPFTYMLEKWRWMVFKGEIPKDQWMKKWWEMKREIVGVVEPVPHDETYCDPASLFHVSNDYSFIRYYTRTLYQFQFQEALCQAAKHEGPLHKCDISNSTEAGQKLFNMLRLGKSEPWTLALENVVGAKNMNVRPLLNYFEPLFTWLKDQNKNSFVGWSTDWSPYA

B1: SARS-CoV S domain B (S^B), residues 306-575 (domain or fragment)
chain: not shown
Kd: 5 ± 0.1 nM
koff: 0.00087 s⁻¹ and 0.00071 s⁻¹
kon: 170000 M⁻¹ s⁻¹
